Measured values from US20230212305A1, “ANTI-ABCG2 ANTIBODIES AND USES THEREOF” (Kenjockety Biotechnology, Inc., priority 2020, published 2023).
Numbering of substitutions follows the chain as printed.

T1: ABCG2 (Homo sapiens, UniProt Q9UNQ0)
T1 construct: expressed in transfected cells
T1 sequence (Q9UNQ0 1-655): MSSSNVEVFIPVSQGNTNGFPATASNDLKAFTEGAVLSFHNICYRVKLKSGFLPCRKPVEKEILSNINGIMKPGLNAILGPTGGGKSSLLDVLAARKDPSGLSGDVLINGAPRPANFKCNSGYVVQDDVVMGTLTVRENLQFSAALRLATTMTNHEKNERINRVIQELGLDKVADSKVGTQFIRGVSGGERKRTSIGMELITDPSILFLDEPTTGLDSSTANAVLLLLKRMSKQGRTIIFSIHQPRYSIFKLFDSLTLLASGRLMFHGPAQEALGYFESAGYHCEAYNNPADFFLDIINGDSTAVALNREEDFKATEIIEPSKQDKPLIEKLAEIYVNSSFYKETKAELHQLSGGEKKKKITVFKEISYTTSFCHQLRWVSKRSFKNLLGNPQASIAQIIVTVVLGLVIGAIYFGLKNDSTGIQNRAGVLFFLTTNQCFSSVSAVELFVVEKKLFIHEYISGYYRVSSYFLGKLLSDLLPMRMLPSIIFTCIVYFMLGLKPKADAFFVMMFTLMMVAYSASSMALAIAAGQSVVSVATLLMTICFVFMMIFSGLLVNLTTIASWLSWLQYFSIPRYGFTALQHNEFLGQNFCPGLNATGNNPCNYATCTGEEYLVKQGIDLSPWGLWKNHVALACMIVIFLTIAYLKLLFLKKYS

B1: G2.346 rat: anti-ABCG2 antibody raised in rat (antibody, V domains shown)
VH: SVQWKESGPGLVQPSQTLSLTCTVSGFSLTSNGVSWVRQPPGKGLEWIAAISSGGSTYYNSGLKSRLSISRDTSKSQVFLKMNSLQTEDTAIYFCTRAGYYGYNPIWFTYWGQGTLVTVSS
VL: DVVMTQTPPTLSATIGQSVSISCRSSQSLLHGSGNTYLNWLLQRPGQPPQILIYLVSRLESRVPKRFSGSGSGTDFTLKISGVEADDLGVYYCVQSTHAPFTFGSGTKLELK
B2: G2.348 rat: anti-ABCG2 antibody raised in rat (antibody, V domains shown)
VH: B1 VH with S1E, W4L, K5V, V12M, A50T, S56N, Y58N, G62A, A98V, T109A
VL: DVVMTQTPPTLSATIGHSVSISCRSSQSLFHSSGNTYLSWFLQRPGQPPQLLIYLVSRLESRVPNRFSGSGSGTDFTLKISVLEAEDLGVYYCVQTTHAPFTFGSGTKLEIK
B3: G2.394 rat: anti-ABCG2 antibody raised in rat (antibody, V domains shown)
VH: EVQLKESGPGLVQPSQTLSLTCTVSGFSLTDYTITWVRQPPGKGLEWIAATSVGGATHYNSPLKSRLSISGDTSKSQVFLKMNSLRTEDTAMYFCVRSGYYSTYMNWGRGTMVTVSS
VL: DVVMTQTPPTFSATIGQSVSISCRSSQSLLHSSGNTFLSWLLQRPGQPPQLLIYLVSRLEFGVPNRFSGSGSGTDFTLKISGVEAEDLGVYYCVQSTHVMNTFGAGTKLEIK
B4: G2.302 Humanized: humanized version of anti-ABCG2 antibody G2.302 (antibody, V domains shown)
VH: EIQLVQSGAEVKKPGASVKVSCKASGYTFTDYYINWVRQAPGQRLEWIGWIYPGNVNVKYNEKFKGRATLTVDTSASTGYMELSSLRSEDTAVYFCARSIGLRYFDNWGQGTLVTVSS
VL: EKVLTQSPATLSLSPGERATLSCRASSSVHYMYWHQQKPGQSPRLWIYYTSNLAPGVPARFSGSGSGNDYTLTISSLEPEDFAVYYCQQFTTSTWTFGGGTKLEIK
B5: G2.257 mouse: anti-ABCG2 antibody raised in mouse (antibody, V domains shown)
VH: EVQLQQSGPELVKPGASLKISCKTFGYSFTGYYMHWVKQSPEKSLEWIGKIVPSTGGTTYNQKFKAKATLTVDKSSFTAYMQLKSLTTEDSAVYYCAREKVYGYDVYYFDYWGQGTTLTVSS
VL: DIQMTQTPSSLSASLGDRVTITCSTSQGVRSYLNWYQQKPDGSVKLLIYYTSSLHSGVPSRFSGSGSGTDYSLTISNLEPEDIATYYCQQYSKLPYTFGGGTKLELK
B6: G2.247 mouse: anti-ABCG2 antibody raised in mouse (antibody, V domains shown)
VH: EVRLQQSGAELVKPGASVKLSCKTSGFTFSNSYISWLKQKPRQSLEWIAWIYAGTGGTNYNQKFTGKAQLTVDTSSSTAYMQLSSLTSEDSAIYYCATYGNFLYAMDNWGQGTSVTVSS
VL: DIVMTQSPASLSASVGETVTITCRASGNIHNYLAWYQQKQGKSPQLLVYNTKTLADGVPSRFSGSGSGTQYSLKINSLQPEDFGSYYCQHFWSTPWTFGGGTKLEIK
B7: G2.252 mouse: anti-ABCG2 antibody raised in mouse (antibody, V domains shown)
VH: B6 VH with R3Q, N108Y, S114T, V115L
VL: B6 VL with D1E, M4L, T51A
B8: G2.760: anti-ABCG2 monoclonal antibody (antibody, V domains shown)
VH: EVQLVESGGGLVQPGRSMKLSCAASGFTFSKSDMAWVRQAPTKGLKWVASIRYDGGNTYYRDSVRGRFTISRDNAKSTLYLQMDSLRSEDTATYYCSTAKAAISTPSYYVLDAWGQGASVTVSS
VL: DIGMTQSPTSMSKSVGDRVTMNCKASQNVGSNVDWFQQKTGQSPKLLIYKSSNRYTGVPARFTGSGSGTDFTFTISNMQAEDLAVYYCMQSNSYPPTFGGGTKLELK
B9: G2.748: anti-ABCG2 monoclonal antibody (antibody, V domains shown)
VH: QVSLKESGPGMLQPSKTLSLTCSFSGFSLSTSGMVVNWIRQPSGKSLEWLAAIDWDGDKYYNPSLKHRLTVSKDTSNTQVVLKITSVDTADTATYYCARSIAPYRGWFGYWGQGTLVTVSS
VL: EIVLIQSPSSLPASLGERVTIICRASQDIGNNLNWYQQKPDGTIKPLIYFTSNFQSGVPSSFSGSRSGTDFSLTISSLEAEDFAMYYCQQDASLPWTFGGGTKLEIK
B10: G2.757: anti-ABCG2 monoclonal antibody (antibody, V domains shown)
VH: QVTLKESGPGILRPSHTLSLTCSFSGFSLTTYGICVSWIRQPSGKGLEWLANICWEDSKAYNPSLKNRLTISKDTSNNQVFLRIPSVDTADSAIYYCARVFNNYPFPYWGQGTLVTVSS
VL: TQSPPSLSASLGDKVTITCQASQNINKYVAWYQQKPGKAPRLLIRYTSTLESGTPSRFSGSGSWRDYSFSISNVESEDIADYYCLQYVNLWTFGGGTKLELK
B11: G2.640: Anti-G2 antibody raised in rats; VH SEQ ID NO:415, VL SEQ ID NO:416 (antibody, listed as Rattus norvegicus, V domains shown)
VH: EVKLEESGPGLVQPSQTLSLTCTVSGFSLTSDGVSWVRQPPGKGLEWIAAISSGGSTYYNSALKSRLSISRDTSKSQVFLKMNSLQTEDTAIYFCTRDTYYGYNQIPFVYWGQGTLVTVSS
VL: DIVIIQSPPSLSASLGDKVTISCQASQNIHRYIAWYQQKPGKAPRLLIRYTSTLESGTPSRFSGSGSGRDYSFSISNVESEDIASYYCLQYVNLWTFGGGTKLELK
B12: G2.636.hu47: humanized variant of the anti-ABCG2 antibody G2.636 (antibody, V domains shown)
VH: EVQLVESGGGLVQPGGSLRLSCAASGFTFSRFYMAWVRQAPGKGLEWVAHISHGGDTTYYRDSVKGRFTISRDNSKNTLYLQMNSLRAEDTAVYYCTTSAAPWNYVMDGWGQGATVTVSS
VL: DIQLTQSPSSLSASVGDRVTLTCKGSQNINNFLAWYQQKPGKAPKLLIYKTNSLHTGIPSRFSGSGSGTDYTLTISSLQPEDFATYYCYQYNNGYTFGQGTKLEIK

Target: T1, ABCG2
Experiment: Flow cytometry binding to 293T cells overexpressing human ABCG2 (293T_ABCG2_OX)
Design: key to Binding by FACS: binding=“+”; non-significant binding=“−”
Details: 293T_ABCG2_OX cells
Description: (§1) Cell Binding Assays. Antibody binding to cells was evaluated by flow cytometry. 293T cells stably transfected to express human or cynomolgus ABCG2 (293T_ABCG2_OX) were washed once in flow cytometry buffer (PBS+2% FBS+0.02% sodium azide), resuspended at 2×10^6 cells/mL in flow cytometry buffer, and dispensed into 96-well microtiter plates at 0.1 mL/well. Recombinant antibodies were added to cells at 5 ug/mL for initial binding confirmation, or serially diluted from 100 ug/mL in flow cytometry buffer. After incubating cells on ice for 30 min, cells were washed twice with flow cytometry buffer. Bound antibody was detected with PE-labeled F(ab′)2 fragment goat anti-human IgG (Jackson ImmunoResearch) and evaluated on an Attune NxT flow cytometer. EC50 is calculated to be the concentration of antibody that gives half maximal response.

Row | Molecule | Binding by FACS
1 | B1 | +
2 | B2 | +
3 | B3 | +
4 | B4 | +
5 | B5 | +
6 | B6 | +
7 | B7 | +

Same assay, conditions: in words; FIGS. 7-11, 21

Row | Molecule | binding to 293T cells overexpressing human ABCG2
8 | B8 | good binding affinity
9 | B9 | good binding affinity
10 | B10 | good binding affinity
11 | B11 | did not show significant binding

Test system: cynomolgus ABCG2
Sequence (as listed by the source): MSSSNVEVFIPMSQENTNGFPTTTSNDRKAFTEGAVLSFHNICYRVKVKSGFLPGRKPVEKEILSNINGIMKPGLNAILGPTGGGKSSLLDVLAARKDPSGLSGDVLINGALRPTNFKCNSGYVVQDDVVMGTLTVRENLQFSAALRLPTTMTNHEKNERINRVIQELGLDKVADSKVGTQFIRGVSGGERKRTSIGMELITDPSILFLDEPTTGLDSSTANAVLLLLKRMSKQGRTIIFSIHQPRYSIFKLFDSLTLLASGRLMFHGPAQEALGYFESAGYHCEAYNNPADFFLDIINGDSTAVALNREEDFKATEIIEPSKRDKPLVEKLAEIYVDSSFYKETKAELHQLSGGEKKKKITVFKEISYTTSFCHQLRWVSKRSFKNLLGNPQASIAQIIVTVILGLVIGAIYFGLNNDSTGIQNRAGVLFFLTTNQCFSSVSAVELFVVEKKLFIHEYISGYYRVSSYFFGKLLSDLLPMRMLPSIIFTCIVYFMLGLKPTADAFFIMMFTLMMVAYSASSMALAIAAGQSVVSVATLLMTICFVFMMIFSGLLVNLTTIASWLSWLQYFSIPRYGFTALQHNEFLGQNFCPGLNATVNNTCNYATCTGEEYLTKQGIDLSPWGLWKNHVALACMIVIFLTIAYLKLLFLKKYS
Experiment: Flow cytometry binding to 293T cells overexpressing cynomolgus ABCG2
Design: key to Cynomolgus ABCG2 binding: binding=“+”; non-significant binding=“−”
Details: not given
Description: as §1

Row | Molecule | Cynomolgus ABCG2 binding
12 | B1 | +
13 | B2 | +
14 | B3 | +
15 | B4 | +
16 | B5 | +
17 | B6 | −
18 | B7 | −

Same assay, conditions: in words; FIGS. 7-11, 21

Row | Molecule | binding to 293T cells overexpressing cynomolgus ABCG2
19 | B8 | good binding affinity
20 | B9 | good binding affinity
21 | B10 | good binding affinity
22 | B11 | did not show significant binding

Target: T1, ABCG2
Experiment: not given
Assay type: cell-based
Details: not given
Description: 293T_ABCG2_OX cells were washed several times and aliquoted into 96-well plates as 50 μl aliquots/well at a cell density of 2×10e6 cells per ml in phenol red-free DMEM. Cells were mixed with 50 μl antibodies or the small molecule inhibitors of ABCG2:-fumitremorgin C (FTC), or its tetracyclic analogue K0143, with a final concentration of 1 μM. Cells were then incubated in the presence of 2.5 μM Mitoxantrone 1 h at 37° C. The cells were subsequently washed twice and finally resuspended in […] PBS. Mitoxantrone fluorescence was measured using excitation at 635 nm and emission at 647 nm. Protocols was measuring efflux blockade are found in Szabo E, et al., PLoS One. 2018 Jan. 17; 13(1):e0190629; Deeken J F, et al., Mol Pharmacol. 2009 November; 76(5):946-56).

Row | Molecule | Block Efflux | efflux inhibition activities and binding to human and cynomolgus ABCG2 of humanized G2.636 antibodies
23 | B1 | − | 
24 | B2 | − | 
25 | B3 | − | 
26 | B4 | − | 
27 | B5 | − | 
28 | B6 | − | 
29 | B7 | − | 
30 | B12 |  | particularly good expression and activity
